Our source for the Kd values is patent publication US20060088510A1 (BRIGHAM AND WOMEN S HOSPITAL, published 2006).

No end group written: not given here.

For this assay, the target named is T1, Streptavidin (UniProt P22629 37-163, limits assumed).
T1 construct: also called 35S-streptavidin; Radiolabeled Streptavidin (35S-SLR labeled)
Kind of assay: radioligand binding assay, 35S-streptavidin on 1:100 biotinylated:nonbiotinylated self-assembling peptides (1% w/v). An excerpt: We have previously shown that biotinylated peptides can be synthesized and incorporated with self-assembling (Davis, et al., Circ Res 97: 8-15 (2005)). To allow sufficient distance from the peptide to allow streptavidin binding (Livnah, et al., Proc Natl Acad Sci USA 90:5076-5080 (1993); Pugliese, et al., J. Mol Biol 231:698-710 (1993)), the biotin was attached to the peptide by two N-e-Fmoc-e-aminocaproic acids.

T1 sequence (P22629 37-163 limits assumed): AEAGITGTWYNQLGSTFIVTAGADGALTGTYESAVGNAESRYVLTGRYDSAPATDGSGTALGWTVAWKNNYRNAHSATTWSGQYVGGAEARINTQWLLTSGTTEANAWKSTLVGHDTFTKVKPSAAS

B1: Biotinylated RAD16-II peptide (peptide)
peptide: RARADADARARADADA-NH2
modifications: not fully specified (N-terminus); also: biotin linked via 2 aminocaproic acid groups, attachment residue not given here
notes: Synthetic self-assembling peptide; In the assays it was mixed 1:100 with nonbiotinylated RAD16-II (1% final peptide weight/volume) and assembled into fibers; also called biotinylated self-assembling peptides; biotinylated peptides
What is called Kd is the equilibrium constant for the complex coming apart. Low values mean a tighter complex, high ones a looser complex. Take B1: the Kd was found to be 190 nM.
